Data from patent publication US20110281938, “APTAMERS TO TISSUE FACTOR PATHWAY INHIBITOR AND THEIR USE AS BLEEDING DISORDER THERAPEUTICS” (Baxter Healthcare S.A., published 2011).

These binders were tested against T1, TFPI (tissue factor pathway inhibitor, full-length) (Homo sapiens, UniProt P10646 SEQ:1-276) (assay: competition; fails binding-competition criterion). Conditions: tags: American Diagnostica 4500PC/4900PC, E. coli expressed.
Protocol: The substituted ARC17480 molecules were assayed for binding and function. The assays used for this evaluation were the calibrated automated thrombogram (CAT) assay, a dot-blot binding-competition assay and a FXa activity assay. The results of these assays are summarized in Table 40 and depicted in FIG. 147. A mutation was considered tolerated for activity if it met the criteria of at least two of the three assays that were carried out. Mutations that are tolerated (“yes”) and not tolerated (“no”) are identified in Table 40. The experimental details and the criteria used for each assay are described in the following paragraphs. The molecules described in this example were first tested in the CAT assay and the dot-blot binding-competition assay. In most cases, molecules were only tested in the FXa assay if there was a discrepancy between the results in the CAT assay and the dot-blot binding-competition assay.
Each molecule was evaluated for binding to tissue factor pathway inhibitor (TFPI) in a binding-competition assay. For these experiments, 10 nM human TFPI (American Diagnostica, Stamford, Conn., catalog #4900PC) was incubated with trace amounts of radiolabeled ARC17480 and 5000 nM, 1666.67 nM, 555.56 nM, 185.19 nM, 61.73 nM, 20.58 nM, 6.86 nM, 2.29 nM, 0.76 nM or 0.25 nM of unlabeled competitor aptamer. ARC17480 was included as a competitor in every experiment as a control. For each molecule, the percentage of radiolabeled ARC17480 bound at each competitor aptamer concentration was used for analysis. The percentage of radiolabeled ARC17480 bound was plotted as a function of aptamer concentration and fit to the equation y=(max/(1+x/IC₅₀))+int, where y=the percentage of radiolabeled ARC17480 bound, x=the concentration of aptamer, max=the maximum radiolabeled ARC17480 bound, and int=the y-intercept, to generate an IC₅₀ value for binding-competition. The IC₅₀ of each aptamer was compared to the IC₅₀ of ARC17480 that was evaluated in the same experiment. A mutation was considered tolerated in the binding-competition assay if the IC₅₀ of that molecule was not more than 5-fold greater than that of ARC17480 evaluated in the same experiment. Tolerated mutations are indicated in Table 40 as meeting the assay criteria (“yes”) or not meeting the assay criteria (“no”).

T1 sequence (P10646 29-304): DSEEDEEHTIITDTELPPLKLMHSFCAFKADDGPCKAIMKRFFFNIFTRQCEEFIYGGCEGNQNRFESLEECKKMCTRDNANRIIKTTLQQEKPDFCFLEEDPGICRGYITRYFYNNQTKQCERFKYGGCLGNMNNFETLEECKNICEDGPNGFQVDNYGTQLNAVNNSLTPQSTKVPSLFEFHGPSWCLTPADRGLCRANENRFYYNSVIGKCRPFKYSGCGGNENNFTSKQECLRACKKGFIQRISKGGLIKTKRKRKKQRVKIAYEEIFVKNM

Row | Binder | binding signal
1 | GGAAUAUACUUGGCUTGUUAGGUGCGUAUAUA (mixed, 2'-OMe A/G/U, dT16, 2'-deoxy C, 3' idT) [ARC33164] | > 5 fold IC50 of ARC17480
2 | GGAAUAUACUCGGCUCGUUAGGUGCGUAUAUA (mixed, 2'-OMe A/G/U and mC11, other C 2'-deoxy, 3' idT) [ARC33159] | > 5 fold IC50 of ARC17480
3 | GGAAUAUACUUGGCUCGUUAGGUUCGUAUAUA (mixed, 2'-OMe A/G/U, 2'-deoxy C, 3' idT) [ARC33172] | > 5 fold IC50 of ARC17480
4 | GGAAUAUACUUGGCUCGUUAGGUGCUUAUAUA (mixed, 2'-OMe A/G/U, 2'-deoxy C, 3' idT) [ARC33174] | > 5 fold IC50 of ARC17480
5 | GGAAUAUACUUGGCUCGUUAGGUGCGCAUAUA (mixed, 2'-OMe A/G/U and mC27, other C 2'-deoxy, 3' idT) [ARC33175] | > 5 fold IC50 of ARC17480
6 | GGAAUAUACUUGGCUCGUUUGGUGCGUAUAUA (mixed, 2'-OMe A/G/U, 2'-deoxy C, 3' idT) [ARC33168] | > 5 fold IC50 of ARC17480
7 | GGAAUAAACUUGGCUCGUUAGGUGCGUAUAUA (mixed, 2'-OMe A/G/U, 2'-deoxy C, 3' idT) [ARC34868] | > 5 fold IC50 of ARC17480
8 | GGAAUAUACUUUGCUCGUUAGGUGCGUAUAUA (mixed, 2'-OMe A/G/U, 2'-deoxy C, 3' idT) [ARC33160] | > 5 fold IC50 of ARC17480
9 | GGAAUAUACUUGGCUCGUUAGUUGCGUAUAUA (mixed, 2'-OMe A/G/U, 2'-deoxy C, 3' idT) [ARC33170] | > 5 fold IC50 of ARC17480
10 | GGAAUAUACUUGGCCCGUUAGGUGCGUAUAUA (mixed, 2'-OMe A/G/U and mC15, other C 2'-deoxy, 3' idT) [ARC33163] | > 5 fold IC50 of ARC17480
11 | GGAAUAUACUUGGCUCGUUAGGCGCGUAUAUA (mixed, 2'-OMe A/G/U and mC23, other C 2'-deoxy, 3' idT) [ARC33171] | > 5 fold IC50 of ARC17480
12 | GGAAUAUACUUGGCUCGUUAGGUGTGUAUAUA (mixed, 2'-OMe A/G/U, dT25, 2'-deoxy C, 3' idT) [ARC33173] | > 5 fold IC50 of ARC17480
13 | GGAAUAUACUUGGCUCUUUAGGUGCGUAUAUA (mixed, 2'-OMe A/G/U, 2'-deoxy C, 3' idT) [ARC33165] | > 5 fold IC50 of ARC17480
14 | GGAAUAUATUUGGCUCGUUAGGUGCGUAUAUA (mixed, 2'-OMe A/G/U, dT9, 2'-deoxy C, 3' idT) [ARC33157] | > 5 fold IC50 of ARC17480
15 | GGAAUAUACUUGGCUCGUUAGGUGCGUUUAUA (mixed, 2'-OMe A/G/U, 2'-deoxy C, 3' idT) [ARC33176] | > 5 fold IC50 of ARC17480
16 | GGAAUAUACUUGUCUCGUUAGGUGCGUAUAUA (mixed, 2'-OMe A/G/U, 2'-deoxy C, 3' idT) [ARC33161] | > 5 fold IC50 of ARC17480
17 | GGAAUAGACUUGGCUCGUUAGGUGCGUAUAUA (mixed, 2'-OMe A/G/U, 2'-deoxy C, 3' idT) [ARC34869] | > 5 fold IC50 of ARC17480

What follows are binders tested against T1, TFPI (tissue factor pathway inhibitor, …) (assay: competition; meets binding-competition criterion). Conditions: tags: American Diagnostica 4500PC/4900PC, E. coli expressed.
Protocol: (§1) Each molecule was evaluated for binding to tissue factor pathway inhibitor (TFPI) in a binding-competition assay. For these experiments, 10 nM human TFPI (American Diagnostica, Stamford, Conn., catalog #4500PC) was incubated with trace amounts of radiolabeled ARC17480 and 5000 nM, 1666.67 nM, 555.56 nM, 185.19 nM, 61.73 nM, 20.58 nM, 6.86 nM, 2.29 nM, 0.76 nM or 0.25 nM of unlabeled competitor aptamer. ARC17480 was included as a competitor in every experiment as a control. For each molecule, the percentage of radiolabeled ARC17480 bound at each competitor aptamer concentration was used for analysis. The percentage of radiolabeled ARC17480 bound was plotted as a function of aptamer concentration and fit to the equation y=(max/(1+x/IC₅₀))+int, where y=the percentage of radiolabeled ARC17480 bound, x=the concentration of aptamer, max=the maximum radiolabeled ARC17480 bound, and int=the y-intercept, to generate an IC₅₀ value for binding-competition. The IC₅₀ of each aptamer was compared to the IC₅₀ of ARC17480 that was evaluated in the same experiment. A substitution was considered tolerated in the binding-competition assay if the IC₅₀ of that molecule was not more than 5-fold greater than that of ARC17480 evaluated in the same experiment. Tolerated substitutions are indicated in Table 38 as meeting the assay criteria (“yes”) or not meeting the assay criteria (“no”).

Row | Binder | binding signal
18 | GGAAUAUACUUGGCUCGUUAGGUGCGUAUUA (mixed, 2'-OMe A/G/U, 2'-deoxy C, 3' idT) [ARC33142] | ≤ 5 fold IC50 of ARC17480
19 | GGAAUAUACUUGGCUCGUUAGGUGCGUAUAA (mixed, 2'-OMe A/G/U, 2'-deoxy C, 3' idT) [ARC33143] | ≤ 5 fold IC50 of ARC17480
20 | GGAAUAUACUUGGCUCGUUAGGUGCGUAUAU (mixed, 2'-OMe A/G/U, 2'-deoxy C, 3' idT) [ARC18555] | ≤ 5 fold IC50 of ARC17480
21 | GAAUAUACUUGGCUCGUUAGGUGCGUAUAUA (mixed, 2'-OMe A/G/U, 2'-deoxy C, 3' idT) [ARC32301] | ≤ 5 fold IC50 of ARC17480
22 | GGAUAUACUUGGCUCGUUAGGUGCGUAUAUA (mixed, 2'-OMe A/G/U, 2'-deoxy C, 3' idT) [ARC33120] | ≤ 5 fold IC50 of ARC17480
23 | GGAAAUACUUGGCUCGUUAGGUGCGUAUAUA (mixed, 2'-OMe A/G/U, 2'-deoxy C, 3' idT) [ARC33121] | ≤ 5 fold IC50 of ARC17480
24 | AAUAUACUUGGCUCGUUAGGUGCGUAUAUA (mixed, 2'-OMe A/G/U, 2'-deoxy C, 3' idT) [ARC32302] | ≤ 5 fold IC50 of ARC17480

Target: T1, TFPI (tissue factor pathway inhibitor, …)
Assay: competition; fails binding-competition criterion
Conditions: tags: American Diagnostica 4500PC/4900PC, E. coli expressed
Remark: another data set of the same source
Protocol: as §1

Row | Binder | binding signal
25 | GGAAUAUACUUGGCUCGAGGUGCGUAUAUA (mixed, 2'-OMe A/G/U, 2'-deoxy C, 3' idT) [ARC33147] | > 5 fold IC50 of ARC17480
26 | GGAAUAUACUUCUCGUUAGGUGCGUAUAUA (mixed, 2'-OMe A/G/U, 2'-deoxy C, 3' idT) [ARC33146] | > 5 fold IC50 of ARC17480
27 | GGAAUAACUUGGCUCGUUAGGUGCGUAUAUA (mixed, 2'-OMe A/G/U, 2'-deoxy C, 3' idT) [ARC33123] | > 5 fold IC50 of ARC17480
28 | GGAAUAUCUUGGCUCGUUAGGUGCGUAUAUA (mixed, 2'-OMe A/G/U, 2'-deoxy C, 3' idT) [ARC33124] | > 5 fold IC50 of ARC17480
29 | GGAAUAUACUGGCUCGUUAGGUGCGUAUAUA (mixed, 2'-OMe A/G/U, 2'-deoxy C, 3' idT) [ARC33126] | > 5 fold IC50 of ARC17480
30 | GGAAUAUAUUGGCUCGUUAGGUGCGUAUAUA (mixed, 2'-OMe A/G/U, 2'-deoxy C, 3' idT) [ARC33125] | > 5 fold IC50 of ARC17480
31 | GGAAUAUACUUGGCUCGUUAUGCGUAUAUA (mixed, 2'-OMe A/G/U, 2'-deoxy C, 3' idT) [ARC33148] | > 5 fold IC50 of ARC17480
32 | GGAAUAUACUUGCUCGUUAGGUGCGUAUAUA (mixed, 2'-OMe A/G/U, 2'-deoxy C, 3' idT) [ARC33127] | > 5 fold IC50 of ARC17480
33 | GGAAUAUACUUGGUCGUUAGGUGCGUAUAUA (mixed, 2'-OMe A/G/U, 2'-deoxy C, 3' idT) [ARC33128] | > 5 fold IC50 of ARC17480
34 | GGAAUAUACUUGGCCGUUAGGUGCGUAUAUA (mixed, 2'-OMe A/G/U, 2'-deoxy C, 3' idT) [ARC33129] | > 5 fold IC50 of ARC17480
35 | GGAAUAUACUUGGCUGUUAGGUGCGUAUAUA (mixed, 2'-OMe A/G/U, 2'-deoxy C, 3' idT) [ARC33130] | > 5 fold IC50 of ARC17480
36 | GGAAUAUACUUGGCUCGUUAGGUGCGAUAUA (mixed, 2'-OMe A/G/U, 2'-deoxy C, 3' idT) [ARC33139] | > 5 fold IC50 of ARC17480
37 | GGAAUAUACUUGGCUCGUUAGGUGCGUUAUA (mixed, 2'-OMe A/G/U, 2'-deoxy C, 3' idT) [ARC33140] | > 5 fold IC50 of ARC17480
38 | GGAAUAUACGGCUCGUUAGGUGCGUAUAUA (mixed, 2'-OMe A/G/U, 2'-deoxy C, 3' idT) [ARC33145] | > 5 fold IC50 of ARC17480
39 | GGAAUAUACUUGGCUCUUAGGUGCGUAUAUA (mixed, 2'-OMe A/G/U, 2'-deoxy C, 3' idT) [ARC33131] | > 5 fold IC50 of ARC17480
40 | GGAAUAUACUUGGCUCGUUAGUGCGUAUAUA (mixed, 2'-OMe A/G/U, 2'-deoxy C, 3' idT) [ARC33134] | > 5 fold IC50 of ARC17480
41 | GGAAUAUACUUGGCUCGUUGGUGCGUAUAUA (mixed, 2'-OMe A/G/U, 2'-deoxy C, 3' idT) [ARC33133] | > 5 fold IC50 of ARC17480
42 | GGAAUAUACUUGGCUCGUUAGGGCGUAUAUA (mixed, 2'-OMe A/G/U, 2'-deoxy C, 3' idT) [ARC33135] | > 5 fold IC50 of ARC17480
43 | GGAAUAUACUUGGCUCGUUAGGUCGUAUAUA (mixed, 2'-OMe A/G/U, 2'-deoxy C, 3' idT) [ARC33136] | > 5 fold IC50 of ARC17480
44 | GGAAUAUACUUGGCUCGUUAGGUGCUAUAUA (mixed, 2'-OMe A/G/U, 2'-deoxy C, 3' idT) [ARC33138] | > 5 fold IC50 of ARC17480
45 | GGAAUAUACUUGGCUCGUUAGGUGGUAUAUA (mixed, 2'-OMe A/G/U, 2'-deoxy C, 3' idT) [ARC33137] | > 5 fold IC50 of ARC17480
